Laboratory results: patent US20130344073

What was measured:
[1] = target: pro-factor D-His, P00746
[2] = target: ST-pro-factor D-His, P00746
[3] = target: pro-factor D-His (UniProt P00746)
[4] = target: ST-pro-factor D-His (UniProt P00746)
[5] = target: purified plasma factor B, P00751
purified plasma factor B, P00751, sequence (P00751 26-764): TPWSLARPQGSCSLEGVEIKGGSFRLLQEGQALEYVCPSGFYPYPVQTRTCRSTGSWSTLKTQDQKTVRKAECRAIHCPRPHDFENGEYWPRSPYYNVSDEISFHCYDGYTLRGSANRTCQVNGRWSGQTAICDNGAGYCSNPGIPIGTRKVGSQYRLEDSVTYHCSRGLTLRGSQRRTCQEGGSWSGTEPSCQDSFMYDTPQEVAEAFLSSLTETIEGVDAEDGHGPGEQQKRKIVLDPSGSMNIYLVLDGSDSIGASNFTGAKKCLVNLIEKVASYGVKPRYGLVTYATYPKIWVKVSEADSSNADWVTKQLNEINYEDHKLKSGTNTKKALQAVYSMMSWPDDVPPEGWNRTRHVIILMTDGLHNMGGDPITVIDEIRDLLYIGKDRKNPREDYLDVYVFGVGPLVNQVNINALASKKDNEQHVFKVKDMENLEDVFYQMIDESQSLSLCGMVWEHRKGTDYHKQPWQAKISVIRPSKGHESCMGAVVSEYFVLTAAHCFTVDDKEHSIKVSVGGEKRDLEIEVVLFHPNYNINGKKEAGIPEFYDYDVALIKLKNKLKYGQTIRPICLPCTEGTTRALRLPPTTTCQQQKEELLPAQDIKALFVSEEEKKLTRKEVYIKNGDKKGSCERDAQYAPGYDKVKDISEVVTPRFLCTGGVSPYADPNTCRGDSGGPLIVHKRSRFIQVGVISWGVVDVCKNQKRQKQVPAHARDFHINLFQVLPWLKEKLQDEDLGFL

ST-pro-factor D-His, P00746, sequence (P00746 whole entry, looked up): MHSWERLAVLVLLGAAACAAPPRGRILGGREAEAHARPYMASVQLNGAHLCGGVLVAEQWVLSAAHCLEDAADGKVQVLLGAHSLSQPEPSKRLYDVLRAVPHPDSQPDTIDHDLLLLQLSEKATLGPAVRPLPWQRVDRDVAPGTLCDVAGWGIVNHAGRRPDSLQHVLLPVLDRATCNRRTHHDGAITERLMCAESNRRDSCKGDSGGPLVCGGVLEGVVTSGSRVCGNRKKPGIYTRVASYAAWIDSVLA
pro-factor D-His, P00746, sequence (P00746 whole entry, looked up): as above
ST-pro-factor D-His, sequence (P00746 other isoform, or with tags, fused parts or gaps): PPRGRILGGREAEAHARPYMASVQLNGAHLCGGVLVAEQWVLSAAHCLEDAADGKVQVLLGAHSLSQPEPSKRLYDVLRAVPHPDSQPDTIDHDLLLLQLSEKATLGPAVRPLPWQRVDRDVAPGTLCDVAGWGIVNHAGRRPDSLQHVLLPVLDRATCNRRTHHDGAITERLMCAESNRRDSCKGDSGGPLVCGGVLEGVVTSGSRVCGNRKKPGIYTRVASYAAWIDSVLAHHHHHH
pro-factor D-His, sequence (P00746 other isoform, or with tags, fused parts or gaps): as above

B1: catalytically-inactive MASP-1 (S646A) (protein)
chain: HTVELNNMFGQIQSPGYPDSYPSDSEVTWNITVPDGFRIKLYFMHFNLESSYLCEYDYVKVETEDQVLATFCGRETTDTEQTPGQEVVLSPGSFMSITFRSDFSNEERFTGFDAHYMAVDVDECKEREDEELSCDHYCHNYIGGYYCSCRFGYILHTDNRTCRVECSDNLFTQRTGVITSPDFPNPYPKSSECLYTIELEEGFMVNLQFEDIFDIEDHPEVPCPYDYIKIKVGPKVLGPFCGEKAPEPISTQSHSVLILFHSDNSGENRGWRLSYRAAGNECPELQPPVHGKIEPSQAKYFFKDQVLVSCDTGYKVLKDNVEMDTFQIECLKDGTWSNKIPTCKIVDCRAPGELEHGLITFSTRNNLTTYKSEIKYSCQEPYYKMLNNNTGIYTCSAQGVWMNKVLGRSLPTCLPVCGLPKFSRKLMARIFNGRPAQKGTTPWIAMLSHLNGQPFCGGSLLGSSWIVTAAHCLHQSLDPEDPTLRDSDLLSPSDFKIILGKHWRLRSDENEQHLGVKHTTLHPQYDPNTFENDVALVELLESPVLNAFVMPICLPEGPQQEGAMVIVSGWGKQFLQRFPETLMEIEIPIVDHSTCQKAYAPLKKKVTRDMICAGEKEGGKDACAGDAGGPMVTLNRERGQWYLVGTVSWGDDCGKKDRYGVYSYIHHNKDWIQRVTGVRN
[1]
  cleavage of pro-factor D (Western blot): The catalytically-inactive full length MASP-3 (S679A; lane 3) and MASP-1 (S646A; lane 3) failed to cleave either substrate
[2]
  cleavage of pro-factor D (Western blot): The catalytically-inactive full length MASP-3 (S679A; lane 3) and MASP-1 (S646A; lane 3) failed to cleave either substrate

B2: recombinant MASP-1 (CCP1-CCP2-SP) fragment (enzyme, part only; not given: amino-terminal Strep tag)
chain, part: GNECPELQPPVHGKIEPSQAKYFFKDQVLVSCDTGYKVLKDNVEMDTFQIECLKDGTWSNKIPTCKIVDCRAPGELEHGLITFSTRNNLTTYKSEIKYSCQEPYYKMLNNNTGIYTCSAQGVWMNKVLGRSLPTCLPVCGLPKFSRKLMARIFNGRPAQKGTTPWIAMLSHLNGQPFCGGSLLGSSWIVTAAHCLHQSLDPKDPTLRDSDLLSPSDFKIILGKHWRLRSDENEQHLGVKHTTLHPKYDPNTFENDVALVELLESPVLNAFVMPICLPEGPQQEGAMVIVSGWGKQFLQRFPETLMEIEIPIVDHSTCQKAYAPLKKKVTRDMICAGEKEGGKDACSGDSGGPMVTLNRERGQWYLVGTVSWGDDCGKKDRYGVYSYIHHNKDWIQRVTGVRNHHHHHH
[3]
  cleavage of pro-factor D (Western blot): Identical results were obtained with the pro-factor D-His6 polypeptide (not shown)
[4]
  cleavage of pro-factor D (Western blot): only full length MASP-3 (lane 2) and the MASP-1 CCP1-CCP2-SP) fragment (lane 5) cleaved ST-pro-factor D-His6

B3: human MASP-3 (protein)
chain: HTVELNNMFGQIQSPGYPDSYPSDSEVTWNITVPDGFRIKLYFMHFNLESSYLCEYDYVKVETEDQVLATFCGRETTDTEQTPGQEVVLSPGSFMSITFRSDFSNEERFTGFDAHYMAVDVDECKEREDEELSCDHYCHNYIGGYYCSCRFGYILHTDNRTCRVECSDNLFTQRTGVITSPDFPNPYPKSSECLYTIELEEGFMVNLQFEDIFDIEDHPEVPCPYDYIKIKVGPKVLGPFCGEKAPEPISTQSHSVLILFHSDNSGENRGWRLSYRAAGNECPELQPPVHGKIEPSQAKYFFKDQVLVSCDTGYKVLKDNVEMDTFQIECLKDGTWSNKIPTCKIVDCRAPGELEHGLITFSTRNNLTTYKSEIKYSCQEPYYKMLNNNTGIYTCSAQGVWMNKVLGRSLPTCLPECGQPSRSLPSLVKRIIGGRNAEPGLFPWQALIVVEDTSRVPNDKWFGSGALLSASWILTAAHVLRSQRRDTTVIPVSKEHVTVYLGLHDVRDKSGAVNSSAARVVLHPDFNIQNYNHDIALVQLQEPVPLGPHVMPVCLPRLEPEGPAPHMLGLVAGWGISNPNVTVDEIISSGTRTLSDVLQYVKLPVVPHAECKTSYESRSGNYSVTENMFCAGYYEGGKDTCLGDSGGAFVIFDDLSQRWVVQGLVSWGGPEECGSKQVYGVYTKVSNYVDWVWEQMGLPQSVVEPQVER
[2]
  cleavage of pro-factor D (Western blot), 80 ng MASP-3, 70 ng substrate, 75 minutes at 37 C: MASP-3 cleaves approximately 50% of pro-factor D into factor D (lane 1)
[5]
  factor B cleavage (Coomassie-stained SDS-PAGE), with C3(H2O): either MASP-3 or pro-factor D are able to mediate factor B cleavage, as long as C3 is present
